Test results: patent publication US9365899

Target: yeast Fab1/PIKfyve kinase (yeast) (UniProt P34756)
Assay: cell-based or functional assay

Chain of UniProt P34756 (P34756 2-2278 limits assumed): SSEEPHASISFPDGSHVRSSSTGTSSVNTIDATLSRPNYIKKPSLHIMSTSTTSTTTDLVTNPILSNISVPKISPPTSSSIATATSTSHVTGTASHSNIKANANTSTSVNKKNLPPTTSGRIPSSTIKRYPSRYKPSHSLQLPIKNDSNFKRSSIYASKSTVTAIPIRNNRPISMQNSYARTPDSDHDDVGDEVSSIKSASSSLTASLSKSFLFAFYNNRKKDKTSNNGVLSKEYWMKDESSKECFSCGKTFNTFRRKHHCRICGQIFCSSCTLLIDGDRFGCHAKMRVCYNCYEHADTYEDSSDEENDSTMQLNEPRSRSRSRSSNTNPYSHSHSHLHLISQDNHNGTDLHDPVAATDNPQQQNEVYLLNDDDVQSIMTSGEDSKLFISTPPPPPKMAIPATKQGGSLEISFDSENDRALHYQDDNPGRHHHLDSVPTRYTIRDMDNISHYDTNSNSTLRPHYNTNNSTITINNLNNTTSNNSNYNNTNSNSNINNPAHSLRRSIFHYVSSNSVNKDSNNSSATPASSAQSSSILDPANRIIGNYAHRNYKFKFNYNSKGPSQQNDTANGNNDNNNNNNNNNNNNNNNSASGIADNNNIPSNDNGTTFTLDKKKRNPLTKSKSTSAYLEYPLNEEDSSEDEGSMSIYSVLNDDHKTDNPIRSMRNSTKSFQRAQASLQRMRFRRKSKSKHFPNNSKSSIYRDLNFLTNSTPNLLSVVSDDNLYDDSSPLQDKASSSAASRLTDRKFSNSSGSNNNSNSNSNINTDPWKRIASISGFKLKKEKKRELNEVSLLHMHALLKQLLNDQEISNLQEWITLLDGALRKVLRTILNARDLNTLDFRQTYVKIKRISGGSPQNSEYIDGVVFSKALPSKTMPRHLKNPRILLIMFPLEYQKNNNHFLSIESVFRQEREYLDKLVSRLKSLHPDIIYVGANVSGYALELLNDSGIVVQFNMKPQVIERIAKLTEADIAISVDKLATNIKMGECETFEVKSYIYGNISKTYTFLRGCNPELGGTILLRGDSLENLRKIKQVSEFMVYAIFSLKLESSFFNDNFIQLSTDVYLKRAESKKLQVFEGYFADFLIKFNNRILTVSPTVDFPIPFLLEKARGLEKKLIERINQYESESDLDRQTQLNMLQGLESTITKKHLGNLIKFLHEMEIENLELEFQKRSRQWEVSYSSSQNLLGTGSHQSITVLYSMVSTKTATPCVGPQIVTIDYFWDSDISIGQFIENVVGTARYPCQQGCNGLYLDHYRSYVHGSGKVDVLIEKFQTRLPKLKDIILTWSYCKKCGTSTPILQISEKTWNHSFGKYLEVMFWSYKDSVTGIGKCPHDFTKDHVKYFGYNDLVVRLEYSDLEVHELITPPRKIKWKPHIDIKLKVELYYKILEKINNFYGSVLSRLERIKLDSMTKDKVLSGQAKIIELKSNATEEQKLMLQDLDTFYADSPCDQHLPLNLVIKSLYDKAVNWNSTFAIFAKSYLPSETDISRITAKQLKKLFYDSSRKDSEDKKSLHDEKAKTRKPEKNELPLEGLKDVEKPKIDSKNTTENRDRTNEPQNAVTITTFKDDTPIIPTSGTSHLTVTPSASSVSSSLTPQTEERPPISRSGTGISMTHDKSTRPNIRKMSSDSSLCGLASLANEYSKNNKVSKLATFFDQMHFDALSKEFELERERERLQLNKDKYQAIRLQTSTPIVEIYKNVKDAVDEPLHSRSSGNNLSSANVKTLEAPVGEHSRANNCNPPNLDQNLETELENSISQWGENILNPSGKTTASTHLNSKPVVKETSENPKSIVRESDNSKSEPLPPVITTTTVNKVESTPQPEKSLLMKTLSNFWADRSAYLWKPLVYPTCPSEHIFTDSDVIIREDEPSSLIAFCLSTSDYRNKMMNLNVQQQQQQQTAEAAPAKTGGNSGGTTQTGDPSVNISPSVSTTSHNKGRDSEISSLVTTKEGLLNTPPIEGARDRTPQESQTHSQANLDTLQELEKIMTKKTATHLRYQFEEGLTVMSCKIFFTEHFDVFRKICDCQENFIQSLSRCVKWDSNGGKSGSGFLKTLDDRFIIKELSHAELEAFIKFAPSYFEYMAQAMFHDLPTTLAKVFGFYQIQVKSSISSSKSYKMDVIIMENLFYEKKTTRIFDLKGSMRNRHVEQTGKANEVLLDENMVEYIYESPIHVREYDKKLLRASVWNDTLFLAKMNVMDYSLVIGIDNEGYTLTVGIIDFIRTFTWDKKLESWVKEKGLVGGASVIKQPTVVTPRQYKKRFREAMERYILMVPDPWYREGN

increase in intracellular PI(3,5)P2 concentration after hyperosmotic shock [fold]	Substance
10	yeast FIG4 protein, wildtype (from UniProt P42837 1-879)
4	yeast FIG4 protein with the Ile>Thr mutation corresponding to human I41T (from UniProt P42837 1-879) (enzyme)
